Data as given in FireProtDB (doi:10.1021/bi050502v).

B1: Apolipophorin-3b, P10762 (parent)
chain: MNTLLAVLMLAVAAQARPDAAGHVNIAEAVQQLNHTIVNAAHELHETLGLPTPDEALNLLTEQANAFKTKIAEVTTSLKQEAEKHQGSVAEQLNRFARNLNNSIHDAATSAQPADQLNSLQSALTNVGHQWQTSQPRPSVAQEAWAPVQSALQEAAEKTKEAAANLQNSIQSAVQKPAN

Variants of: B1
Details: Locusta migratoria, pH 7.4, CD, Na2HPO4 KH2PO4 10 mM 2 mM, NaCl 127 mM, reversible: yes, structure 1LS4, whole UniProt chain shown; for ddG of mutation (higher = less stable) / denaturant midpoint (higher = more stable) / unfolding free energy: 25 °C, GdnHCl; for Tm / change of melting temperature, mutant - wild type (higher = more stable): Thermal

Row | Variant | ddG of mutation (higher = less stable) [kcal/mol] | denaturant midpoint (higher = more stable) [M] | unfolding free energy [kcal/mol] | Tm [°C] | change of melting temperature, mutant - wild type (higher = more stable) [°C]
1 | T47A | -0.6 | 0.62 | 2.65 | 57 | 4
2 | L33K | 1.36 | 0.2 | 0.69 | 37 | -16
3 | T47A T159A | 1.06 | 0.37 | 0.99 | – | –
4 | A155K | 1.69 | 0.16 | 0.36 | 38 | -15
5 | T159A | 1.32 | 0.28 | 0.73 | 44 | -9
